Test results as given in paper PMC3901689, “Leptin-Induced Endothelium-Dependent Vasorelaxation of Peripheral Arteries in Lean and Obese Rats: Role of Nitric Oxide and Hydrogen Sulfide” (PLoS ONE, 2014).

T1: human leptin binding domain (hLBD) consisting of the amino acids 428-635 of human leptin receptor (human, UniProt P48357 428-635)
T1 chain: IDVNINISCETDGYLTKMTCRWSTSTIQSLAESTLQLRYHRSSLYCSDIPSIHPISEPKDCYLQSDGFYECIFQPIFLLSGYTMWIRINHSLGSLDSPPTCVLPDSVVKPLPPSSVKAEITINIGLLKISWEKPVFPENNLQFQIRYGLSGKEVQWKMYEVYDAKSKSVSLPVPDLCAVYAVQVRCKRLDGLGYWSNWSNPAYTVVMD

T2: human leptin binding domain (hLBD) consisting of the amino acids 428-635 of human leptin receptor (human, UniProt P48357 428-635)
T2 sequence (looked up): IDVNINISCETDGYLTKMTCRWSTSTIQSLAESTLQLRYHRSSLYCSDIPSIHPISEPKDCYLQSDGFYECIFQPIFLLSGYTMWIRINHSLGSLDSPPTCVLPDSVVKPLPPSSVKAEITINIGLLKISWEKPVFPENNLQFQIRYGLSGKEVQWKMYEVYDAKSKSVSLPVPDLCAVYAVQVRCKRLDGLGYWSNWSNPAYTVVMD


Tests used:
[1] = target: T1, human leptin binding domain (hLBD) …; assay: ELISA; competition with biotinylated human leptin; given as EC50
[2] = target: T2, human leptin binding domain (hLBD) …; assay: competitive non-radioactive receptor-binding assay; hLBD immobilized; biotinylated human leptin bound in the presence of the indicated concentrations of SRLA or PEG-SRLA; triplicates; conditions: both partners purified

Binder | IC50 [1] [nM] | binding result [2]
super active rat leptin antagonist (D23L/L39A/D40A/F41A mutant), non-pegylated (ligand, extra Ala left at the N-terminus from an extra Met-Ala (Met is cleaved by the bacteria); leptin, rat; about 16 kDa by SDS-PAGE; also called SRLA) AVPIHKVQDDTKTLIKTIVTRINLISHTQSVSARQRVTGAAAIPGLHPILSLSKMDQTLAVYQQILTSLPSQNVLQIAHDLENLRDLLHLLAFSKSCSLPQTRGLQKPESLDGVLEASLYSTEVVALSRLQGSLQDILQQLDLSPEC | 0.977 | binds
mono-pegylated super active rat leptin antagonist (D23L/L39A/D40A/F41A mutant) (ligand, mono-pegylated (90%, with 10% double pegylated product); site and PEG size not stated, extra Ala left at the N-terminus from an extra Met-Ala (Met is cleaved by the bacteria); leptin, rat; same chain as m1; also called PEG-SRLA; pegylated superactive rat leptin receptor antagonist) AVPIHKVQDDTKTLIKTIVTRINLISHTQSVSARQRVTGAAAIPGLHPILSLSKMDQTLAVYQQILTSLPSQNVLQIAHDLENLRDLLHLLAFSKSCSLPQTRGLQKPESLDGVLEASLYSTEVVALSRLQGSLQDILQQLDLSPEC | 9.31 | binds
